Our source for the binding result and Kd values is US20190300610A1 (published 2019).

By Kd is commonly meant the free concentration of one partner at which half of the binding sites on the other are occupied at equilibrium, for simple one-to-one binding. A high value points to lower affinity.

In experiment [1] the target is T1, Human VISTA expressed on cells (human, UniProt Q9H7M9 33-311).
T1 construct: also called HEK293 VISTA O/E; HEK293T cells transfected with vector encoding human VISTA
Description: flow cytometry, HEK293T cells transfected with human VISTA vs wildtype, 20 µg/ml antibody (FIGS. 1C, 2, 24).
Description: The cells were washed thrice with FACS buffer (PBS with 5 mM EDTA and 0.5% BSA) and resuspended in FITC-conjugated anti-FC antibody (Invitrogen, USA) for 40 min at 2-8° C. Cells were washed again and resuspended in 200 μL of FACS flow buffer (PBS with 5 mM EDTA) for flow cytometric analysis using MACSQuant 10 (Miltenyi Biotec, Germany). After acquisition, all raw data were analyzed using Flowlogic software. Cells were gated using forward and side scatter profile and Median of Fluorescence Intensity (MFI) value was determined for native and overexpressing cell populations.

In experiment [2] the target is T2, Histidine-tagged mFcγRIII (mouse, UniProt P08508 31-215).
T2 construct: also called mouse FcγRIII; mFcγRIII (50326-M08H, Sino Biological); not shown: histidine tag
T2 sequence (looked up): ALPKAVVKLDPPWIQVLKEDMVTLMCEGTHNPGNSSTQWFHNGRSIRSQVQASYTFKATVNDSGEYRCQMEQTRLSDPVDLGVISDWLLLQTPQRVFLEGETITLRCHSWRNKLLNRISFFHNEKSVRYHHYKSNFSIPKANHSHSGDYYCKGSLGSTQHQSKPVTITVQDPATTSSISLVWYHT
The experiment can be described thus: BLI (Octet QK384), His-tagged receptor on anti-Penta-HIS biosensor, antibody as analyte, pH 7.2. On the technique in general: Biolayer interferometry detects binding as a change in optical thickness at a sensor tip.

The target of the next experiment is T3, Histidine-tagged mFcγRIV (mouse, UniProt A0A0B4J1G0 21-203).
T3 construct: also called mouse FcγRIV; mFcγRIV (50036-M08H, Sino Biological)
T3 sequence: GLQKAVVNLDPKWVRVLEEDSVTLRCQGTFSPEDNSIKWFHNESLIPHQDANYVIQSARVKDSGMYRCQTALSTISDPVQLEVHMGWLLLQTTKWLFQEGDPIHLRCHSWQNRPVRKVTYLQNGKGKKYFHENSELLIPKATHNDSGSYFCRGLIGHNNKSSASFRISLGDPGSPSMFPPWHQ
Described as above.

Experiment [3] has as its target T4, Histidine-tagged mFcγRIIb (mouse, UniProt P08101 30-207).
T4 construct: also called mouse FcγRIIb; mFcγRIIb (50030-M08H, Sino Biological); not shown: histidine tag
T4 sequence (looked up): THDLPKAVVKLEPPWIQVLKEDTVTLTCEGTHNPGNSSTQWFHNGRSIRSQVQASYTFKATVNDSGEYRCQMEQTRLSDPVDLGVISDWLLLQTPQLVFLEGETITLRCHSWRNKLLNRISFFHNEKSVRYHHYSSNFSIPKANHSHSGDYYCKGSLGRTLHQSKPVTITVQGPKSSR
The experiment is described as above.

For experiment [4], the target named is T5, His-tagged cynomolgus macaque VISTA (cynomolgus macaque, UniProt A0A7N9IB00 33-194).
T5 construct: also called cynomolgus monkey VISTA; not shown: His tag
Description: BLI (Octet QK384), His-tagged VISTA captured on anti-Penta-HIS tips, antibody as analyte, global one site fit.

For another experiment, the target named is T6, His-tagged human VISTA (human, UniProt Q9H7M9 33-194).
T6 construct: also called human VISTA-His recombinant protein; VISTA/human His-tagged fusion protein (Sinobiological Inc); not shown: His tag
The description is as above.

Description for His-tagged human VISTA: All measurements were performed at 25° C. with agitation at 1000 rpm. Kinetic measurements for antigen binding were performed by loading anti-VISTA antibody at different concentrations (indicated in the Figures) for 120 s, followed by a 120 s dissociation time by transferring the biosensors into assay buffer containing wells. Sensograms were referenced for buffer effects and then fitted using the Octet QK384 user software (Pall ForteBio, USA). Kinetic responses were subjected to a global fitting using a one site binding model to obtain values for association (kon), dissociation (koff) rate constants and the equilibrium dissociation constant (KD). Only curves that could be reliably fitted with the software (R²>0.90) were included in the analysis.

B1: anti-VISTA clone 9M2-C12 IgG1 (antibody, V domains shown)
VH: QVQLQQSGAELVKPGASVRLSCKASGYTFTSYWMHWVRQRPGLGLEWIGEIDPSDSYTNCNQRFKGKATLTVDKSSSTAYTQLSSLTSEDSAVYYCARWAYGPYAMDYWGQGTSVTVSS
VL: DIVMTQTPLSLPVSLGDQASISCRSSQSLVHSNGNTYLHWYLQKPGQSPKLLIYKVSNRFSGVPDRFSGSGSGTDFTLKISRVEAEDLGVYFCSQSTHVPWTFGGGTKLEIKR
Take B1: in experiment [1], the binding result is reported as “binds”.

B2: 4M2-C12 mIgG2a (antibody)
heavy: EVKLVESGPGLVKPSQSLSLTCTVTGYSITSDYAWNWIRQFPGNKLEWMGYITYSGNISYNPSLRSRISITRDTSKNQFFLQLNSVTPEDTATYSCARSLYYPWYFDVWGAGTTVTVSSAKTTAPSVYPLAPVCGDTTGSSVTLGCLVKGYFPEPVTLTWNSGSLSSGVHTFPAVLQSDLYTLSSSVTVTSSTWPSQSITCNVAHPASSTKVDKKIEPRGPTIKPCPPCKCPAPNLLGGPSVFIFPPKIKDVLMISLSPIVTCVVVDVSEDDPDVQISWFVNNVEVHTAQTQTHREDYNSTLRVVSALPIQHQDWMSGKEFKCKVNNKDLPAPIERTISKPKGSVRAPQVYVLPPPEEEMTKKQVTLTCMVTDFMPEDIYVEWTNNGKTELNYKNTEPVLDSDGSYFMYSKLRVEKKNWVERNSYSCSVVHEGLHNHHTTKSFSRTPGK
light: DIVITQTPAILSTSPGEKVTMTCRASSSVGYIHWYQQKPGSSPKPWIYATSNLASGVPARFSGSGSGTSNSLTITRVEAEDAATYYCQQWSSYPPITFGGGTKLEVKRADAAPTVSIFPPSSEQLTSGGASVVCFLNNFYPKDINVKWKIDGSERQNGVLNSWTDQDSKDSTYSMSSTLTLTKDEYERHNSYTCEATHKTSTSPIVKSFNRNEC
notes: Mouse IgG2a format, produced in CHO cells; also called 4M2-C12 IgG2a
Regarding B2, the binding result (in experiment [2]; with Histidine-tagged mFcγRIV; in experiment [3]) was “binds” throughout.

B3: anti-VISTA clone 4M2-C12 IgG1 (antibody)
heavy: not shown
light: DIVITQTPAILSTSPGEKVTMTCRASSSVGYIHWYQQKPGSSPKPWIYATSNLASGVPARFSGSGSGTSNSLTITRVEAEDAATYYCQQWSSYPPITFGGGTKLEVKRTVAAPSVFIFPPSDEQLKSGTASVVCLLNNFYPREAKVQWKVDNALQSGNSQESVTEQDSKDSTYSLSSTLTLSKADYEKHKVYACEVTHQGLSSPVTKSFNRGEC
notes: Human-mouse chimeric IgG1/kappa; also called V4; clone V4
B3: the Kd (in experiment [4]; with His-tagged human VISTA) was less than 1000 nM each time.
